{
  "source": "paper PMC4756287",
  "key": {"[1]": {"target": "Lhcb1,2 (major components of LHCII trimers)", "assay": "native gel or EMSA; BN-PAGE (4-12.5%) followed by Tricine-SDS PAGE (2D-PAGE), Coomassie; isolated thylakoids, 8 μg Chl, 0.5 mg/ml Chl in 25 mM BisTris/HCl pH 7.0, 20% glycerol, solubilized with 1% α-DDM (0.6 and 1.5% as controls); plants grown under GL200, GL600, GL1800 or shifted 0.5, 2, 6 h to GL1800"}, "[2]": {"target": "Lhcb1,2 (major components of LHCII trimers)", "assay": "native gel or EMSA; BN-PAGE of purified LHCII trimers (3 μg of Chl) solubilized in 0.3, 0.6 and 1% α-DDM"}, "[3]": {"target": "Photosystem II core (C) (Arabidopsis thaliana (endogenous in leaf thylakoids)) (UniProt P83755)", "assay": "native gel or EMSA; BN-PAGE (4-12.5%) followed by Tricine-SDS PAGE (2D-PAGE), Coomassie; isolated thylakoids, 8 μg Chl, 0.5 mg/ml Chl in 25 mM BisTris/HCl pH 7.0, 20% glycerol, solubilized with 1% α-DDM (0.6 and 1.5% as controls); plants grown under GL200, GL600, GL1800 or shifted 0.5, 2, 6 h to GL1800"}},
  "data": [
    {"substance": "Lhcb1,2 (major components of LHCII trimers)", "values": [
      {"measurement": "stoichiometry N", "setting": "[1]", "value": 3},
      {"measurement": "stoichiometry N", "setting": "[2]", "value": 3}
    ]},
    {"substance": "Photosystem II core (C) (from UniProt P83755 1-344; P56761 1-353; P56777 1-508; P56778 15-473; P23321 86-332) (complex)", "values": [
      {"measurement": "stoichiometry N", "setting": "[3]", "value": 2}
    ]}
  ]
}
